# Experimental data from US20240150411A1 (University of Washington, published 2024).
# T1: I53-50A trimer
# T1 construct: also called trimeric I53-50A
# T1 chain: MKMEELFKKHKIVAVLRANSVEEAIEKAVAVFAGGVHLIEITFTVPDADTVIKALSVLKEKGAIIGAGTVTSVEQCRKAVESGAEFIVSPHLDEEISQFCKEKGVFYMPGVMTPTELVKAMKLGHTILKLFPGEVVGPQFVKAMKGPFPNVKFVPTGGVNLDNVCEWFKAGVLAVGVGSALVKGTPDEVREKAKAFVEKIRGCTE
# Molecular target: T1, I53-50A trimer
# Experiment: in vitro co-assembly into partial valency nanostructures, purified by size exclusion chromatography
binder,measurement,value
"I53-50B.4PosT1 pentamer (designed binder, Expressed and purified as in Bale et al; also called I53-50B.4PT1; I53-50B.4PosT1 pentamers) MNQHSHKDHETVRIAVVRARWHAEIVDACVSAFEAAMRDIGGDRFAVDVFDVPGAYEIPLHARTLAETGRYGAVLGTAFVVNGGIYRHEFVASAVINGMMNVQLNTGVPVLSAVLTPHNYDKSKAHTLLFLALFAVKGMEAARACVEILAAREKIAA",binding result,binds
